Experimental data as given in doi:10.1101/212837 (bioRxiv, 2017).

Target: human acid α-glucosidase (GAA), 123-200 fragment of the protease-treated enzyme (human, UniProt P10253 123-200)
Assay: crystal structure

B1: human acid α-glucosidase (GAA), 80-115 fragment of the protease-treated enzyme (domain or fragment)
chain: not shown
binding result: binds
